Measured values taken from patent US20090060925A1, “Rage Fusion Proteins and Methods of Use” (THE TRUSTEES OF COLUMBIA UNIVERSITY IN THE CITY OF, priority 2004, published 2009).

Legend:
Fc receptor = Fc receptor activation, TNF-α secretion from THP-1 cells; assay type: cell-based; details: well precoated with 10 ug/well heat aggregated protein; 24 hours
Description: Fc stimulation results in TNF-α secretion.

[1] = tested on: S100b/RAGE-induced production of TNF-α in THP-1 cells; experiment: Inhibition of S100b/RAGE-induced production of TNF-α in THP-1 cells; assay type: cell-based; details: 10 μg protein, S100b 0.1 mg/ml, 24 hours
Method: THP-1 myeloid cells may be cultured in RPMI-1640 media supplemented with 10% FBS and induced to secrete TNF-α via stimulation of RAGE with S100b. When such stimulation occurs in the presence of a RAGE fusion protein, induction of TNF-α by S100b binding to RAGE may be inhibited.
Previous work has shown that the myeloid THP-1 cells may secrete TNF-α in response to RAGE ligands. In this assay, THP-1 cells were cultured in RPMI-1640 media supplemented with 10% FBS using a protocol provided by ATCC. […] The amount of TNF-α secreted by the THP-1 cells was measured 24 hours after the addition of the proteins to the cell culture using a commercially available ELISA kit for TNF-α (R&D Systems, Minneapolis, Minn.).

animal model of stroke = experiment: Mouse model of stroke (carotid artery ligation and reperfusion, infarct); assay type: in vivo; details: Table 2
Method: In this model, the middle carotid artery of a mouse was ligated for 1 hour followed by 23 hours of reperfusion at which point the mice were sacrificed and the area of the infarct in the brain was assessed. […] Mice were injected intraperitoneally, 1 hour after the initiation of ischemia. Mice were subjected to one hour of cerebral ischemia followed by 24 hours of reperfusion. To induce ischemia, each mouse was anesthetized and body temperature was maintained at 36-37° C. by external warming. The left common carotid artery (CCA) was exposed through a midline incision in the neck. A microsurgical clip was placed around the origin of the internal carotid artery (ICA). […] After the nylon suture had been in place for 1 hour, the animal was re-anesthetized, rectal temperature was recorded and the suture was removed and the incision closed. Infarct volume was determined by anesthetizing the animals with an intraperitoneal injection of sodium pentobarbital (50 mg/kg) and then removing the brains. […] The infarct area in each section was determined with a computer-assisted image analysis system, consisting of a Power Macintosh computer equipped with a Quick Capture frame grabber card, Hitachi CCD camera mounted on a camera stand. […] The images were captured and the total area of infarct was determined over the sections. […] Summing the infarct volumes of the sections calculated the total infarct volume. […]

amyloid-beta = experiment: Competition of a RAGE ligand with immobilized amyloid-beta for binding to the fusion protein; details: RAGE ligand FAC 10 μM
Method: The fusion protein of the present invention may also be used to identify compounds having the ability to bind to RAGE.
Known RAGE ligands were coated onto the surface of Maxisorb plates at a concentration of 5 micrograms per well. Plates were incubated at 4° C. overnight. Following ligand incubation, plates were aspirated and a blocking buffer of 1% BSA in 50 mM imidizole buffer (pH 7.2) was added to the plates for 1 hour at room temperature. The plates were then aspirated and/or washed with wash buffer (20 mM Imidizole, 150 mM NaCl, 0.05% Tween-20, 5 mM CaCl2 and 5 mM MgCl2, pH 7.2). […] The fusion protein was added at increasing dilutions of the initial sample. The RAGE fusion protein was allowed to incubate with the immobilized ligand at 37° C. for one hour after which the plate was washed and assayed for binding of the fusion protein. Binding was detected by the addition of an immunodetection complex containing a monoclonal mouse anti-human IgG1 diluted 1:11,000 to a final assay concentration (FAC) of 21 ng/100 μL, a biotinylated goat anti-mouse IgG diluted 1:500, to a FAC of […], and an avidin-linked alkaline phosphatase. […] Binding of the complex to the immobilized fusion protein was quantified by measuring conversion of PNPP to para-nitrophenol (PNP) which was measured spectrophotometrically at 405 nm. […]

B1: TTP-4000: four domain RAGE fusion protein, SEQ ID NO: 32: human RAGE amino acids 1-251 linked to CH2 and CH3 domains of human IgG (protein, listed as Homo sapiens)
chain: MAAGTAVGAWALVLSLWGAVVGAQNITARIGEPLVLKCKGAPKKPPQRLEWKLNTGRTEAWKVLSPQGGGPWDSVARVLPNGSLFLPAVGIQDEGIFRCQAMNRNGKETKSNYRVRVYQIPGKPEIVDSASELTAGVPNKVGTCVSEGSYPAGTLSWHLDGKPLVPNEKGVSVKEQTRRHPETGLFTLQSELMVTPARGGDPRPTFSCSFSPGLPRHRALRTAPIQPRVWEPVPLEEVQLVVEPEGGAVAPPSVFLFPPKPKDTLMISRTPEVTCVVVDVSHEDPEVKFNWYVDGVEVHNAKTKPREEQYNSTYRVVSVLTVLHQDWLNGKEYKCKVSNKALPAPIEKTISKAKGQPREPQVYTLPPSRDELTKNQVSLTCLVKGFYPSDIAVEWESNGQPENNYKTTPPVLDSDGSFFLYSKLTVDKSRWQQGNVFSCSVMHEALHNHYTQKSLSLSPGK
TNF secreted by THP-1 cells (Fc receptor): less than 2 ng/well
effect on S100b induction of TNF-α, in words [1]: at least as effective in blocking S100b induction of TNF-α as is sRAGE
limiting the area of infarct, compared with sRAGE (animal model of stroke): more efficacious than sRAGE
binding of fusion protein to immobilized amyloid-beta inhibited by the RAGE ligand (amyloid-beta; fusion protein initial solution diluted 1:10): completely inhibited
binding of fusion protein to immobilized amyloid-beta inhibited by the RAGE ligand (amyloid-beta; fusion protein initial solution diluted 1:30): completely inhibited
